For this data set, the system named is MS2 coat protein. Nature of the data set: apparent KD of MS2 coat protein; designed switch direction (-1 OFF switch, 1 ON switch): 1; higher = weaker reporter binding. In short, it runs like this: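 Designed RNA switches with common flanks were made on Illumina chips by stalled E. coli RNA polymerase. Titration with SNAP-549-labelled MS2 coat protein doubled from 0.7 or 1.5 nM up to 3 µM. Apparent KD is each design's median over clusters after curve-fitting normalised fluorescence.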

[1] abbreviates: Eterna round: R95, input ligand: microRNA oligo, concentration not stated.
Where [2] appears, read: input ligand: microRNA oligo, concentration not stated.

For “GCCGCACAUGAGGAUCACCCAUGUAAUUACAUGGGAGGAUAUCAGUGCUCGAAAGAGCACUGAGAAGGCCUAAGGC [SS1 - Omei A] (puzzle: Same State 1)”, the “apparent KD of MS2 coat protein” value by setting is: (Eterna round: R95, input ligand: FMN 200 uM) 419 nM; under setting [1], 32.4 nM; (Eterna round: R95, input ligand: none) 20.8 nM.
Regarding “GCCGCGUUUCGCGCCUACAUGAGGAUCACCCAUGUUUGUAGGCAGGAUAUCGUCCGCUCUGCGGGCGAGAAGGGCUGUUGUGGC [salish99_SSNG3_R04_022] (Eterna round: R96, puzzle: Same State NG 3)”, the “apparent KD of MS2 coat protein” value was determined as 41.2 nM (input ligand: FMN 200 uM), 36.7 nM under setting [2] and 51.5 nM (input ligand: none).
In the case of “GCCGCGUUUCGCGCCUACAUGAGGAUCACCCAUGUUUGUGGGCAGGAUAUCGUCCGCUCUGCGGGCGAGAAGGGCUGUUGUGGG [salish99_SSNG3_R04_024] (Eterna round: R96, puzzle: Same State NG 3)”, the “apparent KD of MS2 coat protein” value by setting is: (input ligand: FMN 200 uM) 231 nM; under setting [2], 159 nM; (input ligand: none) 215 nM.
On to “GCGAGCGUACUUGCUACAUGAGGAUCACCCAUGUUCGUUGGACAGGAUAUGGUACCGUUUCGGUACCAGAAGGGUUCACAUGUA [JL SSNG3 3.77] (Eterna round: R96, puzzle: Same State NG 3)”, for which the “apparent KD of MS2 coat protein” value came to 171 nM (input ligand: FMN 200 uM), 224 nM under setting [2] and 375 nM (input ligand: none).
Take “GCGCUACAUGAGGAUCACCCAUGUGCGAACGCACGAGGAUAUGCAUGGGCUAAUGCUGGUGCAGAAGGCGUGGCGC [Pin2Pin #8] (puzzle: Same State 1)”: under setting [1], the “apparent KD of MS2 coat protein” value amounted to 23.8 nM.
With “GCGGUAACUCACAUGAGGAUCACCCAUGUUCCGGAAACGGCACAGGAUAUCUGUCCGAAAAGGUCAGAGAAGGGUGAAAUCCGC [Fiskers NG3ss - 91] (Eterna round: R96, puzzle: Same State NG 3)”, the “apparent KD of MS2 coat protein” value turned out to be 641 nM (input ligand: FMN 200 uM), 290 nM under setting [2] and 115 nM (input ligand: none).
“GCGUUUAACGUAGGAUAUCGACCUACAUGAGGAUCACCCAUGUCUUUGUAUAGUUUUUUUUGUUACGAGAAGGACGUUUUGCAU [JR_SSNG2_Sub070] (Eterna round: R96, puzzle: Same State NG 2)”: the “apparent KD of MS2 coat protein” value came out at 75.1 nM (input ligand: FMN 200 uM), 95.2 nM under setting [2] and 122 nM (input ligand: none).
In the case of “GCGUUUAACGUAGGAUAUCGAGCUACAUGAGGAUCACCCAUGUCUUUGUAAAGUUUUUUUAAUUACGAGAAGGACGUUUUGCAU [JR_SSNG2_Sub072] (Eterna round: R96, puzzle: Same State NG 2)”, the “apparent KD of MS2 coat protein” value runs as follows: (input ligand: FMN 200 uM) 18.7 nM; under setting [2], 26.7 nM; (input ligand: none) 35.8 nM.
As for “GCUACAUGAGGAUCACCCAUGUGUGCGUGGGAGUGAGUGGCUUAGGAUAUCUAUGACUUGAGUUGAGAGAAGGAGGGUUGCUGU [SS-NG3-LRO13] (Eterna round: R96, puzzle: Same State NG 3)”, the “apparent KD of MS2 coat protein” value amounted to 70.9 nM (input ligand: FMN 200 uM), 53.6 nM under setting [2] and 79.3 nM (input ligand: none).
Consider “GCUACAUGAGGAUCACCCAUGUGUGCGUGGGAGUGAGUGGCUUAGGAUAUCUAUGAUUUUAGUUGAGAGAAGGAGGAUUGCUGU [SS-NG3-LRO10] (Eterna round: R96, puzzle: Same State NG 3)”, for which the “apparent KD of MS2 coat protein” value is, setting by setting: (input ligand: FMN 200 uM) 193 nM; under setting [2], 140 nM; (input ligand: none) 175 nM.
On to “GCUACCAAAGAAGCCUACAUGAGGAUCACCCAUGUAUGUAGGCAGGAUAUCGAUUGCAAAGCGAUCGAGAAGGGCUUAGGUAGC [Mat - Same State NG 3 - JL Mod - D92] (Eterna round: R96, puzzle: Same State NG 3)”, for which the “apparent KD of MS2 coat protein” value came out at 68.9 nM (input ligand: FMN 200 uM), 116 nM under setting [2] and 152 nM (input ligand: none).
“GCUACCAUUGAAGCCAACAUGAGGAUCACCCAUGUAUGUUGGCAGGAUAUCGAUUGCUUUGCGAUCGAGAAGGGCUAAGGUAGC [JL SSNG3 1.29] (Eterna round: R96, puzzle: Same State NG 3)”: the “apparent KD of MS2 coat protein” value turned out to be 120 nM (input ligand: FMN 200 uM), 153 nM under setting [2] and 171 nM (input ligand: none).
As to “GCUACCAUUGAUGCCUACAUGAGGAUCACCCAUGUAUGUAGGCAGGAUAUCGAUUGCUUUGCGAUCGAGAAGGGCUUAGGUAGC [JL SSNG3 1.31] (Eterna round: R96, puzzle: Same State NG 3)”, the “apparent KD of MS2 coat protein” value reads like this: (input ligand: FMN 200 uM) 52.4 nM; under setting [2], 139 nM; (input ligand: none) 183 nM.
With “GCUAGAAAUAAUGCCAACAUGAGGAUCACCCAUGUAUGUUGGCAGGAUAUCGUUUGCUUUGCAAACGAGAAGGGCUAAACUAGC [Mat - Same State NG 3 - JL Mod - D7] (Eterna round: R96, puzzle: Same State NG 3)”, the “apparent KD of MS2 coat protein” value (input ligand: FMN 200 uM) was determined as 280 nM, the “apparent KD of MS2 coat protein” value under setting [2] was determined as 296 nM and the “apparent KD of MS2 coat protein” value (input ligand: none) is 280 nM.
As for “GCUAGAAUUAAAGCCAACAUGAGGAUCACCCAUGUAUGUUGGCAGGAUAUCGUUUGCAAAGCAAACGAGAAGGGCCAAACUAGC [Mat - Same State NG 3 - JL Mod - D2] (Eterna round: R96, puzzle: Same State NG 3)”, the “apparent KD of MS2 coat protein” value was found to be 43.2 nM (input ligand: FMN 200 uM), 94.1 nM under setting [2] and 125 nM (input ligand: none).
Turning to “GCUAGAAUUAAAGCCAACAUGAGGAUCACCCAUGUAUGUUGGCAGGAUAUCGUUUGCAAAGCAAACGAGAAGGGCUAAACUAGC [Mat - Same State NG 3 - JL Mod - D4] (Eterna round: R96, puzzle: Same State NG 3)”, the “apparent KD of MS2 coat protein” value was 197 nM (input ligand: FMN 200 uM), 100 nM under setting [2] and 244 nM (input ligand: none).
On to “GCUAGGAAAGAAGCCAACAUGAGGAUCACCCAUGUAUGUUGGUAGGAUAUCGUAUGCAAAGCAUACGAGAAGGGCUAACCUAGC [Mat - Same State NG 3 - JL Mod - D74] (Eterna round: R96, puzzle: Same State NG 3)”, for which the “apparent KD of MS2 coat protein” value came out at 127 nM (input ligand: FMN 200 uM), 127 nM under setting [2] and 153 nM (input ligand: none).
In the case of “GCUAGUAUAAUUGCUAACAUGAGGAUCACCCAUGUAUGUUGGCAGGAUAUCGUUUGCAAAGCAAACGAGAAGGGCUAAACUAGC [Mat - Same State NG 3 - JL Mod - D14] (Eterna round: R96, puzzle: Same State NG 3)”, the “apparent KD of MS2 coat protein” value reads like this: (input ligand: FMN 200 uM) 36.3 nM; under setting [2], 103 nM; (input ligand: none) 104 nM.
With “GCUCGAAUCAAAACCAACAUGAGGAUCACCCAUGUAUGUUGGUAGGAUAUCGUUUGCUUUGCAAACGAGAAGGACCAAACGAGC [SameState NG3 #2] (Eterna round: R96, puzzle: Same State NG 3)”, the “apparent KD of MS2 coat protein” value runs as follows: (input ligand: FMN 200 uM) 26.8 nM; under setting [2], 67 nM; (input ligand: none) 94.2 nM.
On to “GCUCGAAUCACAGCCAACAUGAGGAUCACCCAUGUGUGUUGGUAGGAUAUCGUUUCUAAGGGAAACGAGAAGGGCCGAACGAGC [SameState NG3 #9] (Eterna round: R96, puzzle: Same State NG 3)”, for which the “apparent KD of MS2 coat protein” value is, setting by setting: (input ligand: FMN 200 uM) 31.5 nM; under setting [2], 39.2 nM; (input ligand: none) 52.1 nM.
Regarding “GCUCGACGUGUUGUCUACAUGAGGAUCACCCAUGUAGGUGCGGAGGAUAUCUACGUGUUUUAUGUAGAGAAGGUCGUGUCGAGC [SameState NG3 #88] (Eterna round: R96, puzzle: Same State NG 3)”, the “apparent KD of MS2 coat protein” value is, setting by setting: (input ligand: FMN 200 uM) 15.1 nM; under setting [2], 15.5 nM; (input ligand: none) 17.2 nM.
Regarding “GCUCGACUGAUGGCCUACAUGAGGAUCACCCAUGUGAUUGGGCAGGAUAUCUAGAUGCAGGAUGUAGAGAAGGGCCUGUCGAGC [SameState NG3 #44] (Eterna round: R96, puzzle: Same State NG 3)”, the “apparent KD of MS2 coat protein” value by setting is: (input ligand: FMN 200 uM) 1170 nM; under setting [2], 194 nM; (input ligand: none) 349 nM.
For “GCUCGGCUGAUGGCCUACAUGAGGAUCACCCAUGUGAGUGGGCAGGAUAUCUAGAUUCAGGAUGUAGAGAAGGGCCUGCCGAGC [SameState NG3 #39] (Eterna round: R96, puzzle: Same State NG 3)”, in that order: 1500 nM, 331 nM and 1190 nM.
The corresponding values for “GCUCGUAUCACAACCGACAUGAGGAUCACCCAUGUAUGUUGGUAGGAUAUCUAUAUUAAGGAUAUAGAGAAGGGCCGAACGAGC [SameState NG3 #13] (Eterna round: R96, puzzle: Same State NG 3)” are 14.6 nM, 10.4 nM and 18.7 nM.
For “GGAAAACAUGAGGAUCACCCAUGUGAAAACGUGGGAGGAUAUCGAUGGAAACCAUACUGUCGAGAAGGCCCAUGUC [EteRNA is fun!] (Eterna round: R96, puzzle: Same State 1)”, under setting [2], the “apparent KD of MS2 coat protein” value stood at 41.8 nM.
Regarding “GGAAAGAGGUUAGGAUAUGCAUGGCUGGGACAUGAGGAUCACCCAUGUAAUAGAAGAAAUCUACAGUAGAAGGGACAAGGAAGG [AK SSNG2-V2-8] (Eterna round: R96, puzzle: Same State NG 2)”, the “apparent KD of MS2 coat protein” value (input ligand: FMN 200 uM) worked out at 759 nM, the “apparent KD of MS2 coat protein” value under setting [2] is 262 nM and the “apparent KD of MS2 coat protein” value (input ligand: none) came out at 224 nM.
For the sequence “GGAAUAUUUACAGGAUAUGAUUUGUAAAUUCGAUCAGAAGGGUAGAUGUCUUACACGACUUGUUACAUGAGGAUCACCCAUGUU [SameState NG1 #9] (Eterna round: R96, puzzle: Same State NG 1)”, the “apparent KD of MS2 coat protein” value was 41.6 nM (input ligand: FMN 200 uM), 48.8 nM under setting [2] and 67.3 nM (input ligand: none).

These data come from the supplement of paper PMC9170038.
